Target: GFP-N-WASP WH1-GBD
Test: co-IP; GFP microbeads precipitate GFP-N-WASP and fragments ΔWA, WH1, WH1-GBD from HEK293T cell extracts; endogenous CRN7 detected with mAb K37-142-1; ratio of co-IP to IP

Chain of GFP-N-WASP WH1-GBD (O00401 whole entry, the tested form may be a part): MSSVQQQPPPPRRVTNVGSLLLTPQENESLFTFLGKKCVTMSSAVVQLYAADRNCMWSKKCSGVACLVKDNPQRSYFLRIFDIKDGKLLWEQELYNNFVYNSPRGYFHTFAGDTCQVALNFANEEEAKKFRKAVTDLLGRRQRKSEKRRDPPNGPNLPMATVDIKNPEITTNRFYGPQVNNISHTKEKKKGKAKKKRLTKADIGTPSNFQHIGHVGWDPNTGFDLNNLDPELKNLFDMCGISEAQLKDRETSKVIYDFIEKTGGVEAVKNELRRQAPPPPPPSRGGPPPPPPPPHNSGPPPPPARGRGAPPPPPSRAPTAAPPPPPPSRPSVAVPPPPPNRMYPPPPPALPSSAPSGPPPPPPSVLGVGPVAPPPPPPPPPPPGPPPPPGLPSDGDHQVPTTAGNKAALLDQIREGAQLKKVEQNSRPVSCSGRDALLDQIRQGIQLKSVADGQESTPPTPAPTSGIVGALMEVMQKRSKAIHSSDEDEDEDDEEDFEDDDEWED

fold binding (co-IP to IP ratio) over WH1 alone: 4 fold
B1: endogenous CRN7 (Coronin7) of HEK293T cells (natural protein)
chain: MNRFRVSKFRHTEARPPRRESWISDIRAGTAPSCRNHIKSSCSLIAFNSDRPGVLGIVPLQGQGEDKRRVAHLGCHSDLVTDLDFSPFDDFLLATGSADRTVKLWRLPGPGQALPSAPGVVLGPEDLPVEVLQFHPTSDGILVSAAGTTVKVWDAAKQQPLTELAAHGDLVQSAVWSRDGALVGTACKDKQLRIFDPRTKPRASQSTQAHENSRDSRLAWMGTWEHLVSTGFNQMREREVKLWDTRFFSSALASLTLDTSLGCLVPLLDPDSGLLVLAGKGERQLYCYEVVPQQPALSPVTQCVLESVLRGAALVPRQALAVMSCEVLRVLQLSDTAIVPIGYHVPRKAVEFHEDLFPDTAGCVPATDPHSWWAGDNQQVQKVSLNPACRPHPSFTSCLVPPAEPLPDTAQPAVMETPVGDADASEGFSSPPSSLTSPSTPSSLGPSLSSTSGIGTSPSLRSLQSLLGPSSKFRHAQGTVLHRDSHITNLKGLNLTTPGESDGFCANKLRVAVPLLSSGGQVAVLELRKPGRLPDTALPTLQNGAAVTDLAWDPFDPHRLAVAGEDARIRLWRVPAEGLEEVLTTPETVLTGHTEKICSLRFHPLAANVLASSSYDLTVRIWDLQAGADRLKLQGHQDQIFSLAWSPDGQQLATVCKDGRVRVYRPRSGPEPLQEGPGPKGGRGARIVWVCDGRCLLVSGFDSQSERQLLLYEAEALAGGPLAVLGLDVAPSTLLPSYDPDTGLVLLTGKGDTRVFLYELLPESPFFLECNSFTSPDPHKGLVLLPKTECDVREVELMRCLRLRQSSLEPVAFRLPRVRKEFFQDDVFPDTAVIWEPVLSAEAWLQGANGQPWLLSLQPPDMSPVSQAPREAPARRAPSSAQYLEEKSDQQKKEELLNAMVAKLGNREDPLPQDSFEGVDEDEWD

From article PMC4855144
